Assay results taken from patent US20070274915.

T1: bacterially-expressed HHR23A substrate, P54725
T1 chain: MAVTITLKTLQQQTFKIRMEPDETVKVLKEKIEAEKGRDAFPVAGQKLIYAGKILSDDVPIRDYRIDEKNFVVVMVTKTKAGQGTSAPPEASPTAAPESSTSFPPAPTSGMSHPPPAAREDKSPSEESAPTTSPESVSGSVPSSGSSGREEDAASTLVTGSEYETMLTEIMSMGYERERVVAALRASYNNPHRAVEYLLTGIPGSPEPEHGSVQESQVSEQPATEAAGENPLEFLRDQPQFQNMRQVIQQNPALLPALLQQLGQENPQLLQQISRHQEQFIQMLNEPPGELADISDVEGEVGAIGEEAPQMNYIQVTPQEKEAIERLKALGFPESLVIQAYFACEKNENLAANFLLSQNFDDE


What was measured:
[1] = target: T1, bacterially-expressed HHR23A substrate, …

Chain of AU-tagged PLC-γ1 (P19174 2-1290): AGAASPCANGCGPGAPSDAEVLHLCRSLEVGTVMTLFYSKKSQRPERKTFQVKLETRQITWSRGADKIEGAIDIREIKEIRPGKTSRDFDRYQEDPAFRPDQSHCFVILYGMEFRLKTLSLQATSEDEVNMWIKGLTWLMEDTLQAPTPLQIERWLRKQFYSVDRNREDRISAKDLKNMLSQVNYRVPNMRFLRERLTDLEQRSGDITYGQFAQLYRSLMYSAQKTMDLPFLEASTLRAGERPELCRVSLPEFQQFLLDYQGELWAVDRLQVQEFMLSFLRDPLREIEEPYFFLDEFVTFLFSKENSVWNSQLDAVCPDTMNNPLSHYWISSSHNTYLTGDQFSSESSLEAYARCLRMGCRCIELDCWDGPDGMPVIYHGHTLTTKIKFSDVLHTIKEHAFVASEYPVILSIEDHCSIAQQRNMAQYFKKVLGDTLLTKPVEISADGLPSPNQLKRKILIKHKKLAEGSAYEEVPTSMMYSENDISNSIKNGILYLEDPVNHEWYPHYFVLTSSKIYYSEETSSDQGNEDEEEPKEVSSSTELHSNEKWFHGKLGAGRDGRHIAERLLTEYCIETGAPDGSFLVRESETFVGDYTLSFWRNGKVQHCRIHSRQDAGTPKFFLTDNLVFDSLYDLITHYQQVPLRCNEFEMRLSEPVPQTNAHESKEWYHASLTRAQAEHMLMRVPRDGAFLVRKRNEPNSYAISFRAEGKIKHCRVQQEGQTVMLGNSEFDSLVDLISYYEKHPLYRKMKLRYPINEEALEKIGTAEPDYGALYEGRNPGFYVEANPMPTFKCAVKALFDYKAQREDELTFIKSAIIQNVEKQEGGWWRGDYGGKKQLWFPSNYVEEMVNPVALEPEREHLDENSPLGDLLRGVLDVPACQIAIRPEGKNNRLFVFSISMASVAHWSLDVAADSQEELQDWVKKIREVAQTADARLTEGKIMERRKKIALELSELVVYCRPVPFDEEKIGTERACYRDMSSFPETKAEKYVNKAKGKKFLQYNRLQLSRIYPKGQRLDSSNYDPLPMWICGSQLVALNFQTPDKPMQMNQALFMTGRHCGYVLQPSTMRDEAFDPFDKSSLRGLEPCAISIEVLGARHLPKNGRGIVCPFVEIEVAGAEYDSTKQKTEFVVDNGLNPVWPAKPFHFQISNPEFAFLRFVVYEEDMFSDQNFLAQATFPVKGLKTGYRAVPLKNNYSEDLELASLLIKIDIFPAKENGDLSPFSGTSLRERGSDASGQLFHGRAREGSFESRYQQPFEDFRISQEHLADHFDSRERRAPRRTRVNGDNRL

Row | Protein | ionomycin-dependent degradation of PLC-γ1 (HEK 293 transfection, immunoblot) (AU-tagged PLC-γ1) | trans-ubiquitination of HHR23A (in vitro reaction with E1, E2 UbcH7, ubiquitin and ATP; SDS-PAGE, anti-HHR23A immunoblot) [1]
1 | myc-tagged Nedd4 isoform (accession number KIAA0093) (protein) MATCAVEVFGLLEDEENSRIVRVRVIAGIGLAKKDILGASDPYVRVTLYDPMNGVLTSVQTKTIKKSLNPKWNEEILFRVHPQQHRLLFEVFDENRLTRDDFLGQVDVPLYPLPTENPRLERPYTFKDFVLHPRSHKSRVKGYLRLKMTYLPKTSGSEDDNAEQAEELEPGWVVLDQPDAACHLQQQQEPSPLPPGWEERQDILGRTYYVNHESRRTQWKRPTPQDNLTDAENGNIQLQAQRAFTTRRQISEETESVDNRESSENWEIIREDEATMYSNQAFPSPPPSSNLDVPTHLAEELNARLTIFGNSAVSQPASSSNHSSRRGSLQAYTFEEQPTLPVLLPTSSGLPPGWEEKQDERGRSYYVDHNSRTTTWTKPTVQATVETSQLTSSQSSAGPQSQASTSDSGQQVTQPSEIEQGFLPKGWEVRHAPNGRPFFIDHNTKTTTWEDPRLKIPAHLRGKTSLDTSNDLGPLPPGWEERTHTDGRIFYINHNIKRTQWEDPRLENVAITGPAVPYSRDYKRKYEFFRRKLKKQNDIPNKFEMKLRRATVLEDSYRRIMGVKRADFLKARLWIEFDGEKGLDYGGVAREWFFLISKEMFNPYYGLFEYSATDNYTLQINPNSGLCNEDHLSYFKFIGRVAGMAVYHGKLLDGFFIRPFYKMMLHKPITLHDMESVDSEYYNSLRWILENDPTELDLRFIIDEELFGQTHQHELKNGGSEIVVTNKNKKEYIYLVIQWRFVNRIQKQMAAFKEGFFELIPQDLIKIFDENELELLMCGLGDVDVNDWREHTKYKNGYSANHQVIQWFWKAVLMMDSEKRIRLLQFVTGTSRVPMNGFAELYGSNGPQSFTVEQWGTPEKLPRAHTCFNRLDLPPYESFEELWDKLQMAIENTQGFDGVD | Itch and Nedd4 both facilitated the ionomycin-dependent degradation of PLC-γ1 | –
2 | catalytically inactive Nedd4 protein, bearing an alanine substitution at the active cysteine of the HECT domain (protein) MATCAVEVFGLLEDEENSRIVRVRVIAGIGLAKKDILGASDPYVRVTLYDPMNGVLTSVQTKTIKKSLNPKWNEEILFRVHPQQHRLLFEVFDENRLTRDDFLGQVDVPLYPLPTENPRLERPYTFKDFVLHPRSHKSRVKGYLRLKMTYLPKTSGSEDDNAEQAEELEPGWVVLDQPDAACHLQQQQEPSPLPPGWEERQDILGRTYYVNHESRRTQWKRPTPQDNLTDAENGNIQLQAQRAFTTRRQISEETESVDNRESSENWEIIREDEATMYSNQAFPSPPPSSNLDVPTHLAEELNARLTIFGNSAVSQPASSSNHSSRRGSLQAYTFEEQPTLPVLLPTSSGLPPGWEEKQDERGRSYYVDHNSRTTTWTKPTVQATVETSQLTSSQSSAGPQSQASTSDSGQQVTQPSEIEQGFLPKGWEVRHAPNGRPFFIDHNTKTTTWEDPRLKIPAHLRGKTSLDTSNDLGPLPPGWEERTHTDGRIFYINHNIKRTQWEDPRLENVAITGPAVPYSRDYKRKYEFFRRKLKKQNDIPNKFEMKLRRATVLEDSYRRIMGVKRADFLKARLWIEFDGEKGLDYGGVAREWFFLISKEMFNPYYGLFEYSATDNYTLQINPNSGLCNEDHLSYFKFIGRVAGMAVYHGKLLDGFFIRPFYKMMLHKPITLHDMESVDSEYYNSLRWILENDPTELDLRFIIDEELFGQTHQHELKNGGSEIVVTNKNKKEYIYLVIQWRFVNRIQKQMAAFKEGFFELIPQDLIKIFDENELELLMCGLGDVDVNDWREHTKYKNGYSANHQVIQWFWKAVLMMDSEKRIRLLQFVTGTSRVPMNGFAELYGSNGPQSFTVEQWGTPEKLPRAHTCFNRLDLPPYESFEELWDKLQMAIENTQGFDGVD | did not promote this decrease (FIG. 17D; lanes 5, 6), but prevented the small but significant decrease in PLC-γ1 levels observed in ionomycin-treated cells | –
3 | E6AP (purified, full-length) (protein) MKRAAAKHLIERYYHQLTEGCGNEACTNEFCASCPTFLRMDNNAAAIKALELYKINAKLCDPHPSKKGASSAYLENSKGAPNNSCSEIKMNKKGARIDFKDVTYLTEEKVYEILELCREREDYSPLIRVIGRVFSSAEALVQSFRKVKQHTKEELKSLQAKDEDKDEDEKEKAACSAAAMEEDSEASSSRIGDSSQGDNNLQKLGPDDVSVDIDAIRRVYTRLLSNEKIETAFLNALVYLSPNVECDLTYHNVYSRDPNYLNLFIIVMENRNLHSPEYLEMALPLFCKAMSKLPLAAQGKLIRLWSKYNADQIRRMMETFQQLITYKVISNEFNSRNLVNDDDAIVAASKCLKMVYYANVVGGEVDTNHNEEDDEEPIPESSELTLQELLGEERRNKKGPRVDPLETELGVKTLDCRKPLIPFEEFINEPLNEVLEMDKDYTFFKVETENKFSFMTCPFILNAVTKNLGLYYDNRIRMYSERRITVLYSLVQGQQLNPYLRLKVRRDHIIDDALVRLEMIAMENPADLKKQLYVEFEGEQGVDEGGVSKEFFQLVVEEIFNPDIGMFTYDESTKLFWFNPSSFETEGQFTLIGIVLGLAIYNNCILDVHFPMVVYRKLMGKKGTFRDLGDSHPVLYQSLKDLLEYEGNVEDDMMITFQISQTDLFGNPMMYDLKENGDKIPITNENRKEFVNLYSDYILNKSVEKQFKAFRRGFHMVTNESPLKYLFRPEEIELLICGSRNLDFQALEETTEYDGGYTRDSVLIREFWEIVHSFTDEQKRLFLQFTTGTDRAPVGGLGKLKMIIAKNGPDTERLPTSHTCFNVLLLPEYSSKEKLKERLLKAITYAKGFGML | – | time-dependent increase in the amount of ubiquitin-conjugated HHR23A substrate
